The record followed here is patent US6887467B1, “Double mutants of dihydrofolate reductase and methods of using same” (Sloan-Kettering Institute for Cancer Research, priority 1996, dated 2005).

In data set [1] the test system is human DHFR (wild type and variants). In words: Inhibition constants (Ki) of antifolates for DHFR variants from steady state reaction rates. In kind it is biochemical. Particulars: for Ki Kcat/km relative: relative to wt = 1, MTX. From the text:
The first parameter, Ki, is the “inhibition constant” and reflects the level of inhibition by a given compound. Ki, is obtained from steady state reaction rates observed for mixtures of enzyme, cofactor. 7,8-dihydrofolate (the normal substrate) and variable levels of antifolate. The higher the value of Ki, the higher the concentration of antifolate required to inhibit the activity of the enzyme on the normal substrate.
(§1) The parameters Km and kcat can be combined to provide a measure of overall catalytic efficiency which is given by kcat/Km. High levels of catalytic efficiency are preferred.

Data set [2] shares this test system. In words: Kinetic parameters (Km, kcat) of purified DHFR variants with 7,8-dihydrofolate. In kind it is biochemical. The protocol: Km or the “Michaelis constant” reflects the ability of an enzyme to convert a given substrate to product. In this case, the substrate is the normal substrate, 7,8-dihydrofolate. Km is determined using a double reciprocal plot of the initial velocity of the reaction as a function of the concentration of the substrate. Higher values of Km reflect a decreased affinity for the normal substrate.
kcat reflects the catalytic turnover of the enzyme. kcat values are obtained by active site titration experiments using MTX or from activity and total protein measurements of purified enzyme species.
as §1
Enzyme expressed by the transformed E. coli was purified using an MTX-affinity column, followed by DEAE-Sephacel column chromatography.

Where two headings read alike, the source gives them in different places.

Broadly, the kcat is the maximal rate divided by the concentration of active sites. The Km is the substrate concentration at which the rate is half of its maximum. The Ki is a dissociation constant, usually derived from enzyme kinetics or from competition with a known ligand.

For `N[C@@H](Cc1ccc(O)cc1)C(=O)O` [22 tyrosine, reference compound], in data set [1], the “Ki Kcat/km relative” value is recorded as 104.

B1: wild type: wild-type human dihydrofolate reductase, leucine at amino acid 22 and phenylalanine at amino acid 31 (protein, UniProt P00374 1-187, looked up)
Dihydrofolate reductase: MVGSLNCIVAVSQNMGIGKNGDLPWPPLRNEFRYFQRMTTTSSVEGKQNLVIMGKKTWFSIPEKNRPLKGRINLVLSRELKEPPQGAHFLSRSLDDALKLTEQPELANKVDMVWIVGGSSVYKEAMNHPGHLKLFVTRIMQDFESDTFFPEIDLEKYKLLPEYPGVLSDVQEEKGIKYKFEVYEKND
Regarding B1, in data set [2], the kcat was 12.7 s⁻¹. Also, the Km in data set [2] (substrate 7,8-dihydrofolate, read-out: Km (H2folate)) amounted to 80 nM. In addition, the inhibition constant (Ki) in data set [1] (inhibitor aminopterin, read-out: Ki APT) is 1.8 pM; in data set [1] (inhibitor methotrexate, read-out: Ki (MTX)), 1.2 pM; in data set [1] (inhibitor piritrexin, read-out: Ki PTX), 132 pM; in data set [1] (inhibitor trimetrexate, read-out: Ki TMTX) it was 13 pM. Besides, the “Ki Kcat/km” value in data set [1] (product of Ki (MTX) and catalytic efficiency) was found to be 0.191 s⁻¹. Also, the “Ki Kcat/km relative” value in data set [1] is on record as 1.
